From patent publication US20250277030A1, “ANTI-NAPI2B ANTIBODIES AND METHODS OF USE” (Zymeworks BC Inc., priority 2022, published 2025)

What was measured:
NCI-H441 cells = test: Internalization by flow cytometry in NCI-H441 cells; type: cell-based, human; conditions: antibody 10 nM
Protocol: Briefly, antibodies were fluorescently labeled by coupling to a Fab fragment AF488 conjugate targeting anti-Human IgG Fe (Jackson Immuno Research Labs, West Grove, PA; Cat. No. 109-547-008) at a 1:1 molar ratio in PBS pH 7.4 (Thermo Fisher Scientific, Waltham, MA; Cat. No. 10010-023), for 24 hours at 4° C. Cells were seeded at 50,000 cells/well in RPMI 1640, ATCC modification (Thermo Fisher Scientific, Waltham, MA) supplemented with 10% fetal bovine serum (Thermo Fisher Scientific, Waltham, MA) in 48-well plates and incubated overnight under standard culturing conditions (37° C./5% CO2) to allow attachment. […] Following incubation, cells were dissociated, washed, and surface AF488 fluorescence was quenched using an anti-AF488 antibody (Life Technologies, Carlsbad, CA; Cat. No. A-11094) at 100 nM for 30 minutes at 4° C. […] (internalized fluorescence) was detected by flow cytometry on a BD LSRFortessa™ Cell Analyzer (BD Biosciences, Franklin Lake, NJ) with 1,000 minimum events collected per well. The AF488/FITC-A GeoMean (fluorescence signal geometric mean, proportional to anti-Human Fab AF488 labelling) was calculated for the live single cell population using FlowJo™ Version 10.8.1 (BD Biosciences, Franklin Lake, NJ) and plotted using GraphPad Prism Version 9 (GraphPad Software, San Diego, CA).

mouse NaPi2b = target: T1, mouse NaPi2b (Mus musculus, UniProt Q9DBP0); test: Flow cytometry binding to HEK293-6e cells transfected with mouse NaPi2b (Example 5); conditions: transfected HEK293-6e cells, 18-24 hours at 4° C.
T1 construct: expressed in transfected cells; host or cells: HEK293-6e
T1 sequence (Q9DBP0 1-697): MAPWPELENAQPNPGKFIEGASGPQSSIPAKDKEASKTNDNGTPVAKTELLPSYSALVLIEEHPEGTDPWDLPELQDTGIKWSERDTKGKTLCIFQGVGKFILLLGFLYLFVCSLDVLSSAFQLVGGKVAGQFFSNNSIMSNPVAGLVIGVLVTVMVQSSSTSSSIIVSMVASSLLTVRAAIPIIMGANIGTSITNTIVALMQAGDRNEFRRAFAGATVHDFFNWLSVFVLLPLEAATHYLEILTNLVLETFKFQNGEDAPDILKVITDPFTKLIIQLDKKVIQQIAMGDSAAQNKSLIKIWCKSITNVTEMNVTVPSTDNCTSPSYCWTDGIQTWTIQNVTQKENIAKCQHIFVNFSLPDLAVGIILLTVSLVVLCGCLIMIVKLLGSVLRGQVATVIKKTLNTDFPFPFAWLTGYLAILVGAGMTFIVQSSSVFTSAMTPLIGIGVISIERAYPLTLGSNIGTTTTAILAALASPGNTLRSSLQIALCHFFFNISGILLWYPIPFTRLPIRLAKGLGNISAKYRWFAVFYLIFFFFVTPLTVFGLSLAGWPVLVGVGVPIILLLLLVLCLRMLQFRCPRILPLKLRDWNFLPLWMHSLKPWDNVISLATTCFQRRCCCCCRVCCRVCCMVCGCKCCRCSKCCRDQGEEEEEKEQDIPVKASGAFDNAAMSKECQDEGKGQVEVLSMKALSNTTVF
Protocol: The binding cross-reactivity of humanized antibody variant v29456 to human, cynomolgus and mouse NaPi2b was assessed by flow cytometry using HEK293-6e transfected cells.
Briefly, HEK293-6e cells were transfected for ˜24 hours to transiently express human NaPi2b, cynomolgus or mouse NaPi2b, at 1 μg of DNA per 1 million cells. Following transfection, 50,000 cells per well were seeded in V-bottom 96-well plates and incubated with 200 nM of primary antibody for 18-24 hours at 4° C. to prevent internalization. Post-incubation, cells were washed and stained with anti-Human IgG Fc AF647 conjugate (Jackson Immuno Research Labs, West Grove, PA, Cat. No. 109-605-098, Lot. No. 124868) at 4° C. for 1 hour. Following staining and washing, fluorescence was detected by flow cytometry on BD LSRFortessa™ Cell Analyzer (BD Biosciences, Franklin Lake, NJ) with 10,000 minimum events collected per well. The AF647/APC-A GeoMean (fluorescence signal geometric mean, proportional to anti-Human AF647 binding) was calculated for the live singlet cell population for each primary antibody using FlowJo™ v8 software (BD Biosciences, Franklin Lake, NJ). The Bmax and Kd of each primary antibody were calculated using GraphPad Prism Version 9 (GraphPad Software, San Diego, CA)

[1] = Thermal stability by differential scanning calorimetry (DSC); type: physicochemical; conditions: 0.4 mg/mL in PBS, scan 20° C. to 100° C. at 60° C./hr
Protocol: The thermal stability of the humanized antibody variants was assessed by differential scanning calorimetry (DSC) as described below.
400 μL of purified samples primarily at concentrations of 0.4 mg/mL in PBS were used for DSC analysis with a VP-Capillary DSC (Malvern Panalytical Inc., Westborough, MA). At the start of each DSC run, 5 buffer blank injections were performed to stabilize the baseline, and a buffer injection was placed before each sample injection for referencing. Each sample was scanned from 20° C. to 100° C. at a 60° C./hr rate, with low feedback, 8 sec filter, 3 min pre-scan thermostat, and 70 psi nitrogen pressure. The resulting thermograms were referenced and analyzed using Origin 7 software (OriginLab Corporation, Northampton, MA) to determine melting temperature (Tm) as an indicator of thermal stability.

B1: v29456: humanized anti-NaPi2b IgG1/kappa antibody H1L2; VH SEQ ID NO:24, VL SEQ ID NO:29 (antibody, V domains shown)
VH: QVQLVQSGAEVKKPGASVKVSCKASGFTFTSYNVHWVRQAPGQGLEWMGAISPGNGDLSYAQKFQGRVTMTRDTSTSTVYMELSSLRSEDTAVYYCARGRTGMGAVDYWGQGTLVTVSS
VL: DVQMTQSPSSLSASVGDRVTITCRASQDVYSYLNWYQQKPGKAVKLLIYYTSRLQSGVPSRFSGSGSGTDYTLTISSLQPEDFATYYCQQYNIFPWTFGQGTKLEIK
modifications: v29452, v29456, v29460 VH (H1); v29453, v29454, v29455, v29456 VL (L2)
- Internalized Fluorescence Fold-Over Palivizumab (NCI-H441 cells; NCI-H441, 5 hrs): 2.4 fold
- Internalized Fluorescence Fold-Over Palivizumab (NCI-H441 cells; NCI-H441, 24 hrs): 4.0 fold
- Bmax (APC-A GeoMean), Ms NaPi2b (mouse NaPi2b): 2,062 APC-A GeoMean
- Kd (mouse NaPi2b; highest antibody concentration 200 nM, read-out: Apparent Kd (nM), Ms NaPi2b): 10.6 nM
- Fab Tm [1]: 77.9 °C
